Experimental data published in patent US20250171512A1.

target: human FGFR1c together with human beta-Klotho (KLB), stably expressed on CHO Flp-In cells (human), P11362; test: cell-based or functional assay
Sequence (P11362 22-822, chain 1 of 2): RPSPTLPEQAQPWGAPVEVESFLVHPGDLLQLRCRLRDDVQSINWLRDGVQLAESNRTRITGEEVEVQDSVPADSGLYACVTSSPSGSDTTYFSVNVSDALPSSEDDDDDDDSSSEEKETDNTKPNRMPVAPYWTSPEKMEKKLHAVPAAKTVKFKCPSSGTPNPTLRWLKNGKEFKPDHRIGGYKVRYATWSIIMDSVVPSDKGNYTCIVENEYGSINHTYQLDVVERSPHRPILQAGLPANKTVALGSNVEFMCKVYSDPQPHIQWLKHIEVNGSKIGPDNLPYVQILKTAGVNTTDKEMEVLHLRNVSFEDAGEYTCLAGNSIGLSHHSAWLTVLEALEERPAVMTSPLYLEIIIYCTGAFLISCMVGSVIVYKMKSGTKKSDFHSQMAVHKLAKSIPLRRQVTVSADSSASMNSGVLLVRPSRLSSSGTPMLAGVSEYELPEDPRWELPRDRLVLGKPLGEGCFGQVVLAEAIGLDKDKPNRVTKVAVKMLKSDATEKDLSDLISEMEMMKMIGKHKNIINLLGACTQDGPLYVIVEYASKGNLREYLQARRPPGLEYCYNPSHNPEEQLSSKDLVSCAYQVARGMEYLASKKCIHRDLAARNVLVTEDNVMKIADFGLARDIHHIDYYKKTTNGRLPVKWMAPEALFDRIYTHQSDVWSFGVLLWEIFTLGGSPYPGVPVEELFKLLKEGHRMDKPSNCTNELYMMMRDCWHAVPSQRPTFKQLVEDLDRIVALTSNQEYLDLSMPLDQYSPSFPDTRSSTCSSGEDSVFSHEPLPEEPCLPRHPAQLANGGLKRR
Sequence (Q86Z14 whole entry, chain 2 of 2, further chain): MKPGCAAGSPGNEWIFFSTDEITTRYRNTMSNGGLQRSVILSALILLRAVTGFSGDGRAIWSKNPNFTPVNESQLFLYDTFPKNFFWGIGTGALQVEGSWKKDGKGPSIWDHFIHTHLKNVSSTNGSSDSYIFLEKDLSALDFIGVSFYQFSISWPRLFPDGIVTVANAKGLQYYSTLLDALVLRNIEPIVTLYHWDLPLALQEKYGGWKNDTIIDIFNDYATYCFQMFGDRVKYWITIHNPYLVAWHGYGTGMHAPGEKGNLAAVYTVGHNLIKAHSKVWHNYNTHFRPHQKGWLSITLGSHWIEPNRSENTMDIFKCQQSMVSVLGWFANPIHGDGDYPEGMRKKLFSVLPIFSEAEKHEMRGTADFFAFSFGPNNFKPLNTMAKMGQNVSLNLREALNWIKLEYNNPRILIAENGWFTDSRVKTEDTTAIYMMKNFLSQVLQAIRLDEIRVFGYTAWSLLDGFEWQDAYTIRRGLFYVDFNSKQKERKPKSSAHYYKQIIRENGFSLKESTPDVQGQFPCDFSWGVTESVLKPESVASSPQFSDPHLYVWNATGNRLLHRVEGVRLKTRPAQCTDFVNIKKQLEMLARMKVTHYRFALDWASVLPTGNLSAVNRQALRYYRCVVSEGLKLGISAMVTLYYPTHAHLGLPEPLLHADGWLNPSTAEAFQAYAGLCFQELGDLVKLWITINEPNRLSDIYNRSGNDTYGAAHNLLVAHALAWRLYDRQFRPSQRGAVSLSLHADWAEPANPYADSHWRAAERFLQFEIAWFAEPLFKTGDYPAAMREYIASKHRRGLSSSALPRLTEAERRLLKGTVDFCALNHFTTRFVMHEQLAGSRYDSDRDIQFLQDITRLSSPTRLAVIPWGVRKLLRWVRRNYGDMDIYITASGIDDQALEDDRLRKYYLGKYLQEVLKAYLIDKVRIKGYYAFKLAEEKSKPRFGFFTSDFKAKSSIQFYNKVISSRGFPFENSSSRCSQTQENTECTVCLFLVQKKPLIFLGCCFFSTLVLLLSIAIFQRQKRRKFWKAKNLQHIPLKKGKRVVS

Binder	pERK ICW EC50 [nmol/L]	In-Cell Western EC50 [nM]	pFGFR ICW EC50 [nmol/L]	pFGFR ICW Emax [%]
FGF21 N149-A162 deleted and replaced by GSHSG (SEQ ID NO: 137), Q9NSA1 29-209 (ligand) GHPIPDSSPLLQFGGQVRQRYLYTDDAQQTEAHLEIREDGTVGGAADQSPESLLQLKALKPGVIQILGVKTSRFLCQRPDGALYGSLHFDPEACSFRELLLEDGYNVYQSEAHGLPLHLPGGSHSGRFLPLPGLPPAPPEPPGILAPQPPDVGSSDPLSMVGPSQGRSPSYAS	0.57			
FGF21 G202-R203 deleted (SEQ ID NO: 157), Q9NSA1 29-209 (ligand) GHPIPDSSPLLQFGGQVRQRYLYTDDAQQTEAHLEIREDGTVGGAADQSPESLLQLKALKPGVIQILGVKTSRFLCQRPDGALYGSLHFDPEACSFRELLLEDGYNVYQSEAHGLPLHLPGNKSPHRDPAPRGPARFLPLPGLPPAPPEPPGILAPQPPDVGSSDPLSMVGPSQSPSYAS	1.63			
FGF21 A162Y (SEQ ID NO: 151), Q9NSA1 29-209 (ligand) GHPIPDSSPLLQFGGQVRQRYLYTDDAQQTEAHLEIREDGTVGGAADQSPESLLQLKALKPGVIQILGVKTSRFLCQRPDGALYGSLHFDPEACSFRELLLEDGYNVYQSEAHGLPLHLPGNKSPHRDPAPRGPYRFLPLPGLPPAPPEPPGILAPQPPDVGSSDPLSMVGPSQGRSPSYAS	0.08			
FGF21 H153Q, R154Q, D155N, A157V, R159K (SEQ ID NO: 132), Q9NSA1 29-209 (ligand) GHPIPDSSPLLQFGGQVRQRYLYTDDAQQTEAHLEIREDGTVGGAADQSPESLLQLKALKPGVIQILGVKTSRFLCQRPDGALYGSLHFDPEACSFRELLLEDGYNVYQSEAHGLPLHLPGNKSPQQNPVPKGPARFLPLPGLPPAPPEPPGILAPQPPDVGSSDPLSMVGPSQGRSPSYAS	0.23			
FGF21 K150H, P152L (SEQ ID NO: 140), Q9NSA1 29-209 (ligand) GHPIPDSSPLLQFGGQVRQRYLYTDDAQQTEAHLEIREDGTVGGAADQSPESLLQLKALKPGVIQILGVKTSRFLCQRPDGALYGSLHFDPEACSFRELLLEDGYNVYQSEAHGLPLHLPGNHSLHRDPAPRGPARFLPLPGLPPAPPEPPGILAPQPPDVGSSDPLSMVGPSQGRSPSYAS	0.13			
FGF21 D155P (SEQ ID NO: 127), Q9NSA1 29-209 (ligand) GHPIPDSSPLLQFGGQVRQRYLYTDDAQQTEAHLEIREDGTVGGAADQSPESLLQLKALKPGVIQILGVKTSRFLCQRPDGALYGSLHFDPEACSFRELLLEDGYNVYQSEAHGLPLHLPGNKSPHRPPAPRGPARFLPLPGLPPAPPEPPGILAPQPPDVGSSDPLSMVGPSQGRSPSYAS	0.08			
FGF21 K150H (SEQ ID NO: 139), Q9NSA1 29-209 (ligand) GHPIPDSSPLLQFGGQVRQRYLYTDDAQQTEAHLEIREDGTVGGAADQSPESLLQLKALKPGVIQILGVKTSRFLCQRPDGALYGSLHFDPEACSFRELLLEDGYNVYQSEAHGLPLHLPGNHSPHRDPAPRGPARFLPLPGLPPAPPEPPGILAPQPPDVGSSDPLSMVGPSQGRSPSYAS	0.15			
FGF21 D155Y (SEQ ID NO: 126), Q9NSA1 29-209 (ligand) GHPIPDSSPLLQFGGQVRQRYLYTDDAQQTEAHLEIREDGTVGGAADQSPESLLQLKALKPGVIQILGVKTSRFLCQRPDGALYGSLHFDPEACSFRELLLEDGYNVYQSEAHGLPLHLPGNKSPHRYPAPRGPARFLPLPGLPPAPPEPPGILAPQPPDVGSSDPLSMVGPSQGRSPSYAS	0.07			
FGF21 D155E (SEQ ID NO: 128), Q9NSA1 29-209 (ligand) GHPIPDSSPLLQFGGQVRQRYLYTDDAQQTEAHLEIREDGTVGGAADQSPESLLQLKALKPGVIQILGVKTSRFLCQRPDGALYGSLHFDPEACSFRELLLEDGYNVYQSEAHGLPLHLPGNKSPHREPAPRGPARFLPLPGLPPAPPEPPGILAPQPPDVGSSDPLSMVGPSQGRSPSYAS	0.13			
FGF21 D155L (SEQ ID NO: 124), Q9NSA1 29-209 (ligand) GHPIPDSSPLLQFGGQVRQRYLYTDDAQQTEAHLEIREDGTVGGAADQSPESLLQLKALKPGVIQILGVKTSRFLCQRPDGALYGSLHFDPEACSFRELLLEDGYNVYQSEAHGLPLHLPGNKSPHRLPAPRGPARFLPLPGLPPAPPEPPGILAPQPPDVGSSDPLSMVGPSQGRSPSYAS	0.11			
FGF21 D155N (SEQ ID NO: 129), Q9NSA1 29-209 (ligand) GHPIPDSSPLLQFGGQVRQRYLYTDDAQQTEAHLEIREDGTVGGAADQSPESLLQLKALKPGVIQILGVKTSRFLCQRPDGALYGSLHFDPEACSFRELLLEDGYNVYQSEAHGLPLHLPGNKSPHRNPAPRGPARFLPLPGLPPAPPEPPGILAPQPPDVGSSDPLSMVGPSQGRSPSYAS	0.06			
FGF21 D155K (SEQ ID NO: 125), Q9NSA1 29-209 (ligand) GHPIPDSSPLLQFGGQVRQRYLYTDDAQQTEAHLEIREDGTVGGAADQSPESLLQLKALKPGVIQILGVKTSRFLCQRPDGALYGSLHFDPEACSFRELLLEDGYNVYQSEAHGLPLHLPGNKSPHRKPAPRGPARFLPLPGLPPAPPEPPGILAPQPPDVGSSDPLSMVGPSQGRSPSYAS	0.06			
FGF21 G202T (SEQ ID NO: 154), Q9NSA1 29-209 (ligand) GHPIPDSSPLLQFGGQVRQRYLYTDDAQQTEAHLEIREDGTVGGAADQSPESLLQLKALKPGVIQILGVKTSRFLCQRPDGALYGSLHFDPEACSFRELLLEDGYNVYQSEAHGLPLHLPGNKSPHRDPAPRGPARFLPLPGLPPAPPEPPGILAPQPPDVGSSDPLSMVGPSQTRSPSYAS	0.01			
FGF21 H153Y, R154K, D155N, P156K, A157G (SEQ ID NO: 134), Q9NSA1 29-209 (ligand) GHPIPDSSPLLQFGGQVRQRYLYTDDAQQTEAHLEIREDGTVGGAADQSPESLLQLKALKPGVIQILGVKTSRFLCQRPDGALYGSLHFDPEACSFRELLLEDGYNVYQSEAHGLPLHLPGNKSPYKNKGPRGPARFLPLPGLPPAPPEPPGILAPQPPDVGSSDPLSMVGPSQGRSPSYAS	0.05			

Second part, the binder after the results:

pERK ICW EC50 [nmol/L]	In-Cell Western EC50 [nM]	pFGFR ICW EC50 [nmol/L]	pFGFR ICW Emax [%]	Binder
0.21				FGF21 P152-H153 deleted (SEQ ID NO: 135), Q9NSA1 29-209 (ligand) GHPIPDSSPLLQFGGQVRQRYLYTDDAQQTEAHLEIREDGTVGGAADQSPESLLQLKALKPGVIQILGVKTSRFLCQRPDGALYGSLHFDPEACSFRELLLEDGYNVYQSEAHGLPLHLPGNKSRDPAPRGPARFLPLPGLPPAPPEPPGILAPQPPDVGSSDPLSMVGPSQGRSPSYAS
0.17				FGF21 S200M (SEQ ID NO: 153), Q9NSA1 29-209 (ligand) GHPIPDSSPLLQFGGQVRQRYLYTDDAQQTEAHLEIREDGTVGGAADQSPESLLQLKALKPGVIQILGVKTSRFLCQRPDGALYGSLHFDPEACSFRELLLEDGYNVYQSEAHGLPLHLPGNKSPHRDPAPRGPARFLPLPGLPPAPPEPPGILAPQPPDVGSSDPLSMVGPMQGRSPSYAS
0.24				FGF21 P152A, H153K, R154K, D155E, P156A, A157S, R159Q (SEQ ID NO: 133), Q9NSA1 29-209 (ligand) GHPIPDSSPLLQFGGQVRQRYLYTDDAQQTEAHLEIREDGTVGGAADQSPESLLQLKALKPGVIQILGVKTSRFLCQRPDGALYGSLHFDPEACSFRELLLEDGYNVYQSEAHGLPLHLPGNKSAKKEASPQGPARFLPLPGLPPAPPEPPGILAPQPPDVGSSDPLSMVGPSQGRSPSYAS
0.17				FGF21 R159H (SEQ ID NO: 152), Q9NSA1 29-209 (ligand) GHPIPDSSPLLQFGGQVRQRYLYTDDAQQTEAHLEIREDGTVGGAADQSPESLLQLKALKPGVIQILGVKTSRFLCQRPDGALYGSLHFDPEACSFRELLLEDGYNVYQSEAHGLPLHLPGNKSPHRDPAPHGPARFLPLPGLPPAPPEPPGILAPQPPDVGSSDPLSMVGPSQGRSPSYAS
	0.21			G-FGF21 with a leucine in position 174 (SEQ ID NO: 174), Q9NSA1 29-209 (ligand) GHPIPDSSPLLQFGGQVRQRYLYTDDAQQTEAHLEIREDGTVGGAADQSPESLLQLKALKPGVIQILGVKTSRFLCQRPDGALYGSLHFDPEACSFRELLLEDGYNVYQSEAHGLPLHLPGNKSPHRDPAPRGPARFLPLPGLPPALPEPPGILAPQPPDVGSSDPLSMVGPSQGRSPSYAS
0.39				FGF21 R154Q, D155K (SEQ ID NO: 131), Q9NSA1 29-209 (ligand) GHPIPDSSPLLQFGGQVRQRYLYTDDAQQTEAHLEIREDGTVGGAADQSPESLLQLKALKPGVIQILGVKTSRFLCQRPDGALYGSLHFDPEACSFRELLLEDGYNVYQSEAHGLPLHLPGNKSPHQKPAPRGPARFLPLPGLPPAPPEPPGILAPQPPDVGSSDPLSMVGPSQGRSPSYAS
0.14				FGF21 R154Q, D155L (SEQ ID NO: 130), Q9NSA1 29-209 (ligand) GHPIPDSSPLLQFGGQVRQRYLYTDDAQQTEAHLEIREDGTVGGAADQSPESLLQLKALKPGVIQILGVKTSRFLCQRPDGALYGSLHFDPEACSFRELLLEDGYNVYQSEAHGLPLHLPGNKSPHQLPAPRGPARFLPLPGLPPAPPEPPGILAPQPPDVGSSDPLSMVGPSQGRSPSYAS
0.24				G-FGF21 (SEQ ID NO: 3), without N-terminal tag, Q9NSA1 29-209 (ligand) GHPIPDSSPLLQFGGQVRQRYLYTDDAQQTEAHLEIREDGTVGGAADQSPESLLQLKALKPGVIQILGVKTSRFLCQRPDGALYGSLHFDPEACSFRELLLEDGYNVYQSEAHGLPLHLPGNKSPHRDPAPRGPARFLPLPGLPPAPPEPPGILAPQPPDVGSSDPLSMVGPSQGRSPSYAS
0.17		4.49	146	FGF21, human (SEQ ID NO: 2), without N-terminal tag, Q9NSA1 29-209 (ligand) HPIPDSSPLLQFGGQVRQRYLYTDDAQQTEAHLEIREDGTVGGAADQSPESLLQLKALKPGVIQILGVKTSRFLCQRPDGALYGSLHFDPEACSFRELLLEDGYNVYQSEAHGLPLHLPGNKSPHRDPAPRGPARFLPLPGLPPAPPEPPGILAPQPPDVGSSDPLSMVGPSQGRSPSYAS
0.98				FGF21 R159-R163 deleted and replaced by HE (SEQ ID NO: 150), Q9NSA1 29-209 (ligand) GHPIPDSSPLLQFGGQVRQRYLYTDDAQQTEAHLEIREDGTVGGAADQSPESLLQLKALKPGVIQILGVKTSRFLCQRPDGALYGSLHFDPEACSFRELLLEDGYNVYQSEAHGLPLHLPGNKSPHRDPAPHEFLPLPGLPPAPPEPPGILAPQPPDVGSSDPLSMVGPSQGRSPSYAS
3.69				FGF21 N149-R163 deleted and replaced by GSGS (SEQ ID NO: 136), Q9NSA1 29-209 (ligand) GHPIPDSSPLLQFGGQVRQRYLYTDDAQQTEAHLEIREDGTVGGAADQSPESLLQLKALKPGVIQILGVKTSRFLCQRPDGALYGSLHFDPEACSFRELLLEDGYNVYQSEAHGLPLHLPGGSGSFLPLPGLPPAPPEPPGILAPQPPDVGSSDPLSMVGPSQGRSPSYAS
0.19				FGF21 N149-A162 deleted and replaced by GSHSGS (SEQ ID NO: 138), Q9NSA1 29-209 (ligand) GHPIPDSSPLLQFGGQVRQRYLYTDDAQQTEAHLEIREDGTVGGAADQSPESLLQLKALKPGVIQILGVKTSRFLCQRPDGALYGSLHFDPEACSFRELLLEDGYNVYQSEAHGLPLHLPGGSHSGSRFLPLPGLPPAPPEPPGILAPQPPDVGSSDPLSMVGPSQGRSPSYAS
